Experimental data taken from the supplement of paper PMC11136658.

Tested on: peptide library, one residue held at a place counted from the Y acceptor
Assay: relative phosphorylation of the sub-library (ratio to the mean residue at this position); higher = residue favoured
Summary of the method: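 Peptide library mixtures, biotinylated and centred on Tyr, each fixed one residue at one position from −5 to +5. Purified recombinant kinases were incubated with them for 90 min in 384-well plates alongside 50 μM ATP and γ-32P-ATP, and the captured, rinsed peptides on streptavidin membranes were measured by phosphorimaging and ImageQuant. Normalization divided each position's intensities by the sum of its 18 randomized residues (16 for the Ser/Thr-free library) and multiplied by that number, so that values give phosphorylation relative to the mean randomized residue.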

FYN, construct: Full length, human, sequence (P06241 whole entry, looked up): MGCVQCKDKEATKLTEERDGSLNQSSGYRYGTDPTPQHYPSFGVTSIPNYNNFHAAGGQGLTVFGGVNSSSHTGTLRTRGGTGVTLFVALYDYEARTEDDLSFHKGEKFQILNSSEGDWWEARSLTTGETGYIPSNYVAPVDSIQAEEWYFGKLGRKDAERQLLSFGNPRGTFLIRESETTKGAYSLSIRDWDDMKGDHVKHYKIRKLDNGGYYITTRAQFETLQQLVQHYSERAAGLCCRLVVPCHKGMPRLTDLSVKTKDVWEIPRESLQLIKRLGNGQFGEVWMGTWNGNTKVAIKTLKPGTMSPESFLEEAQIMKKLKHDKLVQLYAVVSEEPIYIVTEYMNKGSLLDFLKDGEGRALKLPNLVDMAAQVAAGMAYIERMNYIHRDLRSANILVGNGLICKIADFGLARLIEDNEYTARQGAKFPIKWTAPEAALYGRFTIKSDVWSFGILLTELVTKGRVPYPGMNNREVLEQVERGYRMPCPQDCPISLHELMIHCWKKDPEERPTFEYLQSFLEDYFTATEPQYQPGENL

FYN, construct: Full length, human (from UniProt P06241)
relative phosphorylation (A fixed, at +1): 1.68
relative phosphorylation (A fixed, at +2): 1.07
relative phosphorylation (A fixed, at +3): 0.544
relative phosphorylation (A fixed, at +4): 0.857
relative phosphorylation (A fixed, at +5): 0.903
relative phosphorylation (A fixed, at -1): 0.622
relative phosphorylation (A fixed, at -2): 1.04
relative phosphorylation (A fixed, at -3): 0.787
relative phosphorylation (A fixed, at -4): 1.08
relative phosphorylation (A fixed, at -5): 1.02
relative phosphorylation (D fixed, at +1): 0.925
relative phosphorylation (D fixed, at +2): 0.762
relative phosphorylation (D fixed, at +3): 0.546
relative phosphorylation (D fixed, at +4): 1.02
relative phosphorylation (D fixed, at +5): 0.987
relative phosphorylation (D fixed, at -1): 0.867
relative phosphorylation (D fixed, at -2): 1.77
relative phosphorylation (D fixed, at -3): 2.4
relative phosphorylation (D fixed, at -4): 1.64
relative phosphorylation (D fixed, at -5): 1.5
relative phosphorylation (E fixed, at +1): 1.79
relative phosphorylation (E fixed, at +2): 1.76
relative phosphorylation (E fixed, at +3): 0.601
relative phosphorylation (E fixed, at +4): 1
relative phosphorylation (E fixed, at +5): 0.951
relative phosphorylation (E fixed, at -1): 1.08
relative phosphorylation (E fixed, at -2): 1.95
relative phosphorylation (E fixed, at -3): 2.8
relative phosphorylation (E fixed, at -4): 1.89
relative phosphorylation (E fixed, at -5): 1.35
relative phosphorylation (F fixed, at +1): 0.656
relative phosphorylation (F fixed, at +2): 1.08
relative phosphorylation (F fixed, at +3): 3.35
relative phosphorylation (F fixed, at +4): 1.23
relative phosphorylation (F fixed, at +5): 1.16
relative phosphorylation (F fixed, at -1): 0.885
relative phosphorylation (F fixed, at -2): 0.483
relative phosphorylation (F fixed, at -3): 0.803
relative phosphorylation (F fixed, at -4): 0.997
relative phosphorylation (F fixed, at -5): 0.993
relative phosphorylation (G fixed, at +1): 3.49
relative phosphorylation (G fixed, at +2): 0.728
relative phosphorylation (G fixed, at +3): 0.941
relative phosphorylation (G fixed, at +4): 1.03
relative phosphorylation (G fixed, at +5): 1.03
relative phosphorylation (G fixed, at -1): 0.467
relative phosphorylation (G fixed, at -2): 1.38
relative phosphorylation (G fixed, at -3): 0.91
relative phosphorylation (G fixed, at -4): 1.17
relative phosphorylation (G fixed, at -5): 1.14
relative phosphorylation (H fixed, at +1): 0.53
relative phosphorylation (H fixed, at +2): 0.515
relative phosphorylation (H fixed, at +3): 0.732
relative phosphorylation (H fixed, at +4): 0.901
relative phosphorylation (H fixed, at +5): 1.01
relative phosphorylation (H fixed, at -1): 0.419
relative phosphorylation (H fixed, at -2): 0.77
relative phosphorylation (H fixed, at -3): 0.814
relative phosphorylation (H fixed, at -4): 0.726
relative phosphorylation (H fixed, at -5): 0.924
relative phosphorylation (I fixed, at +1): 0.861
relative phosphorylation (I fixed, at +2): 1.06
relative phosphorylation (I fixed, at +3): 1.72
relative phosphorylation (I fixed, at +4): 0.735
relative phosphorylation (I fixed, at +5): 0.718
relative phosphorylation (I fixed, at -1): 3.38
relative phosphorylation (I fixed, at -2): 0.717
relative phosphorylation (I fixed, at -3): 0.641
relative phosphorylation (I fixed, at -4): 0.796
relative phosphorylation (I fixed, at -5): 0.833
relative phosphorylation (K fixed, at +1): 0.231
relative phosphorylation (K fixed, at +2): 0.61
relative phosphorylation (K fixed, at +3): 0.397
relative phosphorylation (K fixed, at +4): 1.12
relative phosphorylation (K fixed, at +5): 1.04
relative phosphorylation (K fixed, at -1): 0.221
relative phosphorylation (K fixed, at -2): 0.515
relative phosphorylation (K fixed, at -3): 0.469
relative phosphorylation (K fixed, at -4): 0.622
relative phosphorylation (K fixed, at -5): 0.901
relative phosphorylation (L fixed, at +1): 0.635
relative phosphorylation (L fixed, at +2): 1.02
relative phosphorylation (L fixed, at +3): 1.39
relative phosphorylation (L fixed, at +4): 0.912
relative phosphorylation (L fixed, at +5): 0.92
relative phosphorylation (L fixed, at -1): 1.76
relative phosphorylation (L fixed, at -2): 0.716
relative phosphorylation (L fixed, at -3): 0.672
relative phosphorylation (L fixed, at -4): 0.906
relative phosphorylation (L fixed, at -5): 0.933
relative phosphorylation (M fixed, at +1): 0.992
relative phosphorylation (M fixed, at +2): 1.05
relative phosphorylation (M fixed, at +3): 0.894
relative phosphorylation (M fixed, at +4): 1.04
relative phosphorylation (M fixed, at +5): 0.858
relative phosphorylation (M fixed, at -1): 0.806
relative phosphorylation (M fixed, at -2): 0.667
relative phosphorylation (M fixed, at -3): 0.729
relative phosphorylation (M fixed, at -4): 0.784
relative phosphorylation (M fixed, at -5): 0.904
relative phosphorylation (N fixed, at +1): 0.504
relative phosphorylation (N fixed, at +2): 0.806
relative phosphorylation (N fixed, at +3): 0.455
relative phosphorylation (N fixed, at +4): 0.81
relative phosphorylation (N fixed, at +5): 1.03
relative phosphorylation (N fixed, at -1): 0.33
relative phosphorylation (N fixed, at -2): 1.34
relative phosphorylation (N fixed, at -3): 1.26
relative phosphorylation (N fixed, at -4): 0.903
relative phosphorylation (N fixed, at -5): 0.97
relative phosphorylation (P fixed, at +1): 0.291
relative phosphorylation (P fixed, at +2): 0.734
relative phosphorylation (P fixed, at +3): 0.571
relative phosphorylation (P fixed, at +4): 0.945
relative phosphorylation (P fixed, at +5): 1.48
relative phosphorylation (P fixed, at -1): 1.2
relative phosphorylation (P fixed, at -2): 1.43
relative phosphorylation (P fixed, at -3): 0.969
relative phosphorylation (P fixed, at -4): 1.32
relative phosphorylation (P fixed, at -5): 1.17
relative phosphorylation (Q fixed, at +1): 0.906
relative phosphorylation (Q fixed, at +2): 0.951
relative phosphorylation (Q fixed, at +3): 0.539
relative phosphorylation (Q fixed, at +4): 1.14
relative phosphorylation (Q fixed, at +5): 0.81
relative phosphorylation (Q fixed, at -1): 0.521
relative phosphorylation (Q fixed, at -2): 1.2
relative phosphorylation (Q fixed, at -3): 0.965
relative phosphorylation (Q fixed, at -4): 1.08
relative phosphorylation (Q fixed, at -5): 0.978
relative phosphorylation (R fixed, at +1): 0.311
relative phosphorylation (R fixed, at +2): 0.79
relative phosphorylation (R fixed, at +3): 0.728
relative phosphorylation (R fixed, at +4): 1.14
relative phosphorylation (R fixed, at +5): 1.22
relative phosphorylation (R fixed, at -1): 0.227
relative phosphorylation (R fixed, at -2): 0.612
relative phosphorylation (R fixed, at -3): 0.56
relative phosphorylation (R fixed, at -4): 0.744
relative phosphorylation (R fixed, at -5): 0.886
relative phosphorylation (S fixed, at +1): 1.01
relative phosphorylation (S fixed, at +2): 1.32
relative phosphorylation (S fixed, at +3): 0.628
relative phosphorylation (S fixed, at +4): 0.977
relative phosphorylation (S fixed, at +5): 1.03
relative phosphorylation (S fixed, at -1): 0.44
relative phosphorylation (S fixed, at -2): 1.23
relative phosphorylation (S fixed, at -3): 0.945
relative phosphorylation (S fixed, at -4): 0.813
relative phosphorylation (S fixed, at -5): 0.865
relative phosphorylation (T fixed, at +1): 0.895
relative phosphorylation (T fixed, at +2): 1.39
relative phosphorylation (T fixed, at +3): 0.92
relative phosphorylation (T fixed, at +4): 0.861
relative phosphorylation (T fixed, at +5): 0.996
relative phosphorylation (T fixed, at -1): 1.33
relative phosphorylation (T fixed, at -2): 0.774
relative phosphorylation (T fixed, at -3): 0.79
relative phosphorylation (T fixed, at -4): 0.733
relative phosphorylation (T fixed, at -5): 0.779
relative phosphorylation (V fixed, at +1): 0.935
relative phosphorylation (V fixed, at +2): 1.28
relative phosphorylation (V fixed, at +3): 1.4
relative phosphorylation (V fixed, at +4): 0.882
relative phosphorylation (V fixed, at +5): 0.722
relative phosphorylation (V fixed, at -1): 2.95
relative phosphorylation (V fixed, at -2): 0.793
relative phosphorylation (V fixed, at -3): 0.649
relative phosphorylation (V fixed, at -4): 0.821
relative phosphorylation (V fixed, at -5): 0.84
relative phosphorylation (W fixed, at +1): 1.36
relative phosphorylation (W fixed, at +2): 1.08
relative phosphorylation (W fixed, at +3): 1.64
relative phosphorylation (W fixed, at +4): 1.38
relative phosphorylation (W fixed, at +5): 1.14
relative phosphorylation (W fixed, at -1): 0.497
relative phosphorylation (W fixed, at -2): 0.606
relative phosphorylation (W fixed, at -3): 0.838
relative phosphorylation (W fixed, at -4): 0.973
relative phosphorylation (W fixed, at -5): 1
relative phosphorylation (pThr fixed, at +1): 1.64
relative phosphorylation (pThr fixed, at +2): 2.15
relative phosphorylation (pThr fixed, at +3): 0.627
relative phosphorylation (pThr fixed, at +4): 0.773
relative phosphorylation (pThr fixed, at +5): 0.686
relative phosphorylation (pThr fixed, at -1): 4.17
relative phosphorylation (pThr fixed, at -2): 1.92
relative phosphorylation (pThr fixed, at -3): 1.58
relative phosphorylation (pThr fixed, at -4): 1.42
relative phosphorylation (pThr fixed, at -5): 1.31
relative phosphorylation (pTyr fixed, at +1): 3.45
relative phosphorylation (pTyr fixed, at +2): 1.96
relative phosphorylation (pTyr fixed, at +3): 0.89
relative phosphorylation (pTyr fixed, at +4): 1.23
relative phosphorylation (pTyr fixed, at +5): 1.11
relative phosphorylation (pTyr fixed, at -1): 1.34
relative phosphorylation (pTyr fixed, at -2): 1.37
relative phosphorylation (pTyr fixed, at -3): 1.71
relative phosphorylation (pTyr fixed, at -4): 1.52
relative phosphorylation (pTyr fixed, at -5): 1.32
